Data taken from patent US20220127304A1.

Experiments:
[1] = target: human IgG1 (human); experiment: SPR, Biacore X-100, human IgG1 on the chip, single cycle kinetics
[2] = target: human serum-derived IgG polyclonal antibody (WAKO) (human); experiment: affinity column breakthrough, scFv immobilized on HiTrap NHS-activated HP; average of Reference Examples 1-1 and 1-2
[3] = target: human serum-derived IgG polyclonal antibody (WAKO) (human); experiment: affinity column breakthrough, scFv immobilized on HiTrap NHS-activated HP (33.6 mg)
[4] = target: human serum-derived IgG polyclonal antibody (WAKO) (human); experiment: affinity column breakthrough, scFv immobilized on HiTrap NHS-activated HP

Binder | Kd [1] [nM] | koff [1] [s⁻¹] | kon [1] [M⁻¹ s⁻¹] | [10% DBC (mg/mL) at flow rate of 1.0 mL/min]/[amount of protein immobilized on column (mg)] [2] | [10% DBC (mg/mL) at flow rate of 1.0 mL/min]/[amount of protein immobilized on column (mg)] [3] | [10% DBC (mg/mL) at flow rate of 1.0 mL/min]/[amount of protein immobilized on column (mg)] [4]
single-chain antibody R3-26 (scFv) scFv: QEQLVESGGGLVKPGGTLTLTCTVSGIDLSSYAMSWVRQVPGKGLEWIGIIGSGGGTAYANWAKGRFTISKTSSTTVDLKMTSLTTEDTATYFCATDYGIYGYAYGHLWGPGTLVTVTSGGGGSGGGGSGGGGSELVMTQTASPVSAAVGGTVTIKCQASQSISTALAWYQQRPGQPPKLLIYDASTLASGVSSRFKGSGSGTEFTLTISDLECADAATYYCQTYFGSDTDNAFGEGTEVEITGSAAALEHHHHHH | 2.1 | 4.3e-05 | 21000 | 0.736 (mg/mL)/mg |  | 
R3-26 repCK+ori6K (scFv) scFv: QEQLVESGGGLVKPGGTLTLTCTVSGIDLSSYAMSWVRQVPGKGLEWIGIIGSGGGTAYANWARGRFTISRTSSTTVDLRMTSLTTEDTATYFCATDYGIYGYAYGHLWGPGTLVTVTKGGGGSGGGGSGGGGSELVMTQTASPVSAKVGGTVTINCQASQSISTALAWYQQKPGQPPRLLIYDASTLASGVSSRFSGSGSGTEFTLTISDLESADAATYYCQTYFGSDTDNAFGEGTEVEIKGSAAALEHHHHHH | 0.79 | 6.2e-05 | 79000 |  | 0.777 (mg/mL)/mg | 
R3-26 repCK+ori6K+VH4KVL4K (scFv) scFv: QEQLVESGGGLVKPGGTLTLTCTVSGIDLSSYAMSWVRQVPGKGLEWIGIIGSGGGTAYANWARGRFTISRTSSTTVDLRMTSLTTEDTATYFCATDYGIYGYAYGHLWGPGTLVTVTKKKKKGGGGSGGGGSGGGGSELVMTQTASPVSAKVGGTVTINCQASQSISTALAWYQQKPGQPPRLLIYDASTLASGVSSRFSGSGSGTEFTLTISDLESADAATYYCQTYFGSDTDNAFGEGTEVEIKKKKKGSAAALEHHHHHH | 0.053 | 1.6e-05 | 300000 |  |  | 
R3-26 repCK+K (scFv) scFv: QEQLVESGGGLVTPGGTLTLTCTVSGIDLSSYAMSWVRQVPGEGLEWIGIIGSGGGTAYANWARGRFTISRTSSTTVDLRMTSLTTEDTATYFCATDYGIYGYAYGHLWGPGTLVTVTSGGGGSGGGGSGGGGSELVMTQTASPVSAAVGGTVTINCQASQSISTALAWYQQRPGQPPRLLIYDASTLASGVSSRFSGSGSGTEFTLTISDLESADAATYYCQTYFGSDTDNAFGEGTEVEITGSAAAGGGGSKIEHHHHHH | 1.6 | 9.1e-05 | 56000 |  |  | 0.625 (mg/mL)/mg
